Laboratory results as given in patent publication US20070154472A1 (published 2007).
[ ]: non-standard residue; d: D form. The star is where a group is joined. Biotin = O=C1N[C@H]2[C@H](CS[C@H]2CCCCC(=O)*)N1; pY = N[C@@H](Cc1ccc(OP(=O)(O)O)cc1)C(=O)O; βAla = NCCC(=O)O

What was measured:
[1] = molecular target: T1, unglycosylated and unsulfated synthetic peptide 19.ek (human, biotinylated; no sulfate, no glycan); experiment: SPR (BIAcore), biotinylated peptide on streptavidin chip
T1 construct: also called synthetic peptide lacking sulfated tyrosine
Procedure: Surface plasmon resonance binding analysis. A BIAcore 2000 instrument (BIAcore AB, Uppsala, Sweden) was used to analyze the interactions between the identified antibodies and biotinylated PSGL-1 19.ek.Fc or derived peptides. Binding experiments were performed at 25° C. using streptavidin-coated sensor chips (BIAcore) and HBS-P buffer (20 mM HEPES [pH 7.4], 150 mM NaCl and 0.005% polysorbate 20 v/v) adjusted to 1 mM for both CaCl₂ and MgCl₂. The streptavidin on the sensor surfaces were conditioned with three one-minute injections of a solution containing 1 M NaCl and 25 mM NaOH. The chips were regenerated with 5 μL of 0.1% TFA and equilibrated with running buffer. […] Binding kinetics were analyzed using BIAevaluation software (V2.1; Pharmacia Biosensor, Uppsala, Sweden). The response representing the mass of bound monoclonal antibodies was measured in resonance units (RU). […] Binding kinetics of human anti-PSGL-1 monoclonal antibodies to the immobilized PSGL-1 19.ek.Fc was determined under partial mass transport limitations by triplicate injections at a concentration range (0-100 nM) onto the immobilized biotinlylated PSGL-1 19.ek.Fc peptide at a flow rate of 30 μL/min, following injection for two minutes. Dissociation was monitored for ten minutes at the same flow rate. […]

[2] = molecular target: T2, fully sulfated and glycosylated human PSGL-1 19.ek.Fc fusion protein (human, sulfated tyrosines (y in QATEyEyLDyDFL, corresponding to Tyr46, Tyr48 and Tyr51 of mature human PSGL-1); O-linked glycan; biotinylated in the assays); experiment: SPR (BIAcore 2000), biotinylated PSGL-1 19.ek.Fc on streptavidin chip, antibody 0-100 nM
T2 construct: also called PSGL-19.ek.Fc; PSGL-19.ed.Fc; not shown: human IgG1 Fc as described in Somers et al., Cell 103:467-479 (2000)
T2 chain: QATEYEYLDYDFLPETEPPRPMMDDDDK
Procedure: Surface plasmon resonance binding analysis. A BIAcore 2000 instrument (BIAcore AB, Uppsala, Sweden) was used to analyze the interactions between the identified antibodies and biotinylated PSGL-1 19.ek.Fc or derived peptides. Binding experiments were performed at 25° C. using streptavidin-coated sensor chips (BIAcore) and HBS-P buffer (20 mM HEPES [pH 7.4], 150 mM NaCl and 0.005% polysorbate 20 v/v) adjusted to 1 mM for both CaCl₂ and MgCl₂. The streptavidin on the sensor surfaces were conditioned with three one-minute injections of a solution containing 1 M NaCl and 25 mM NaOH. The chips were regenerated with 5 μL of 0.1% TFA and equilibrated with running buffer. […] Binding kinetics were analyzed using BIAevaluation software (V2.1; Pharmacia Biosensor, Uppsala, Sweden). The response representing the mass of bound monoclonal antibodies was measured in resonance units (RU). […] Binding kinetics of human anti-PSGL-1 monoclonal antibodies to the immobilized PSGL-1 19.ek.Fc was determined under partial mass transport limitations by triplicate injections at a concentration range (0-100 nM) onto the immobilized biotinlylated PSGL-1 19.ek.Fc peptide at a flow rate of 30 μL/min, following injection for two minutes. Dissociation was monitored for ten minutes at the same flow rate.

[3] = molecular target: T3, BTK peptide (non-phosphorylated); experiment: dot blot on P81 phosphocellulose filters
T3 construct: also called Tufts peptide
T3 peptide: {Biotin-βAla}-AKKVVALYDYMPMN-OH
Excerpt: (§1) PSG2 is Specific for Sulfotyrosine as Compared to Phosphotyrosine. To compare binding to various peptides, a GPG-290 polypeptide (GPG) or a BTK peptide (BTK) (Tufts peptide) (biotin-βAla-[…]-[OH]) (SEQ ID NO:339), one microliter of 1:3 dilutions of compound was spotted onto P81 phosphocellulose filters (Upstate Cell Signaling #20-134). GPG-290 is a dimeric molecule consisting of the N-terminal 290 amino acids of GPIbα fused to a mutated Fc domain of human IgG1. It contains 3 sulfated tyrosine residues at positions 276, 278, and 279. The BTK peptide is biotin-βAla-[…]-[OH] (SEQ ID NO:339). Phospho-BTK contains 2 phosphorylated tyrosine residues. The starting dilution for GPG-290 was 250 ng/μl and for the BTK peptide the starting dilution was 3 μg/μl. Western Blot analysis was performed as follows: filters were blocked for 1 hour in blocking buffer (TBS+0.1% Tween-20 (TBS/T) and 5% nonfat dry milk). Filters were washed in TBS/T and incubated overnight in primary antibody diluted in TBS/T+0.5% BSA. Washed filters were incubated for 1 hour with secondary antibody diluted in blocking buffer (HRP-mouse anti-human IgG4 to detect PSG-2 and HRP-goat anti-mouse IgG+A+M to detect anti-phospho-tyrosine antibody). HRP signal was detected with the SuperSignal Chemiluminescent Substrate (Pierce) and the filters were exposed to X-ray film.

[4] = molecular target: T4, Phospho-BTK peptide (SMILES …); experiment: dot blot on P81 phosphocellulose filters
T4 peptide: Biotin-[βAla]KKVVAL[pY]D[pY]MPMN-OH
Excerpt: as §1

B1: PSG1 full-length bivalent antibody (human IgG4, lambda) (antibody, V domains shown)
VH: QVQLQESGAEVKKPGASVKVSCKSSGYTFTAYYMHWLRQAPGQGLEWMGWINPNSGGTNYAQKFQGRVTLTRDTSISTAYMELNSLTSDDTAMYYCARGGPRVSSRPGIGYSDSWGKGTLVTVSS
VL: QTVVLQEPSLTVSPGGTVTLTCASRIGAVTSGHYANWFQQKPGQAPRALIYRTNNKQSWTPARFSGSLLGDRAALTLSGAQPEDEADYYCLLYYGGSWVFGGGTKLTVLG
notes: also called human monoclonal antibody PSG1
[1]
  binding result: no binding (tested: 100 nM)
[2]
  Ka: ~7.5e+09 M⁻¹

B2: PSG2 full-length bivalent antibody (human IgG4, lambda) (antibody, V domains shown)
VH: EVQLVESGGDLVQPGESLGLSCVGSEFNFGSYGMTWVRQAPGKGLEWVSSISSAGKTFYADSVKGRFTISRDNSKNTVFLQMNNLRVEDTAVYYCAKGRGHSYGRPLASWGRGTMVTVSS
VL: QAVLTQPSSLSASPGASASLTCTLRSGIDVGPHRIYWFQQKPGSTPQYLLRYKSDSDTQQGSGVPSRFSGSKDASANAGILLISGLQSEDEADYYCMIWHSSAWVFGGGTKLTVLG
notes: also called P5G2; human monoclonal antibody PSG2
[3]
  binding result: no binding
[4]
  binding result: no binding
[1]
  binding result: no binding (tested: 100 nM)
[2]
  Ka: ~3.2e+10 M⁻¹
